± gives the uncertainty stated by the source.
B1: POU domain, class 2, transcription factor 3, residues 186 to 260; numbered along this chain, Q9UKI9 (parent)
chain: SDLEELEKFAKTFKQRRIKLGFTQGDVGLAMGKLYGNDFSQTTISRFEALNLSFKNMCKLKPLLEKWLNDAESSP
B2: Transitional endoplasmic reticulum ATPase, residues 26 to 106; numbered along this chain, P55072 (parent)
chain: LIVDEAINEDNSVVSLSQPKMDELQLFRGDTVLLKGKKRREAVCIVLSDDTCSDEKIRMNRVVRNNLRVRLGDVISIQPCP

Variants of: B1
Test: abundance fitness (aPCA) (normalised: wild type 0, dead -1); higher = more abundant; growth selection in yeast, the domain comes from the species named
Conditions: Homo sapiens
FDLEELEKFAKTFKQRRIKLGFTQGDVGLAMGKLYGNDFSQTTISRFEALNLSFKNMCKLKPLLEKWLNDAESSP showed an abundance fitness of -0.062 ± 0.2. Variant SDLEELEKFAKQFKQRRIKLGFTQGDVGLAMGKLYGNDFSQTTISRFEALNLSFKNMCKLKPLLEKWLNDAESSP has an abundance fitness of 0.01 ± 0.13. SDLEELEKFAKRFKQRRIKLGFTQGDVGLAMGKLYGNDFSQTTISRFEALNLSFKNMCKLKPLLEKWLNDAESSP showed an abundance fitness of -0.018 ± 0.11. SDLEELEKFAKNFKQRRIKLGFTQGDVGLAMGKLYGNDFSQTTISRFEALNLSFKNMCKLKPLLEKWLNDAESSP gave an abundance fitness of 0.063 ± 0.13. For SDFEELEKFAKTFKQRRIKLGFTQGDVGLAMGKLYGNDFSQTTISRFEALNLSFKNMCKLKPLLEKWLNDAESSP, the abundance fitness was -0.055 ± 0.32. SDLEELEKFGKTFKQRRIKLGFTQGDVGLAMGKLYGNDFSQTTISRFEALNLSFKNMCKLKPLLEKWLNDAESSP showed an abundance fitness of -0.064 ± 0.16. SDLERLEKFAKTFKQRRIKLGFTQGDVGLAMGKLYGNDFSQTTISRFEALNLSFKNMCKLKPLLEKWLNDAESSP gave an abundance fitness of -0.003 ± 0.026. SDLENLEKFAKTFKQRRIKLGFTQGDVGLAMGKLYGNDFSQTTISRFEALNLSFKNMCKLKPLLEKWLNDAESSP gave an abundance fitness of -0.031 ± 0.061. Variant SDLEILEKFAKTFKQRRIKLGFTQGDVGLAMGKLYGNDFSQTTISRFEALNLSFKNMCKLKPLLEKWLNDAESSP has an abundance fitness of -0.022 ± 0.061. Variant SDLEMLEKFAKTFKQRRIKLGFTQGDVGLAMGKLYGNDFSQTTISRFEALNLSFKNMCKLKPLLEKWLNDAESSP has an abundance fitness of 0.016 ± 0.036. SDLEALEKFAKTFKQRRIKLGFTQGDVGLAMGKLYGNDFSQTTISRFEALNLSFKNMCKLKPLLEKWLNDAESSP gave an abundance fitness of 0.042 ± 0.028. In the case of SDLEGLEKFAKTFKQRRIKLGFTQGDVGLAMGKLYGNDFSQTTISRFEALNLSFKNMCKLKPLLEKWLNDAESSP, the abundance fitness is reported as -0.045 ± 0.027. Variant SDLETLEKFAKTFKQRRIKLGFTQGDVGLAMGKLYGNDFSQTTISRFEALNLSFKNMCKLKPLLEKWLNDAESSP has an abundance fitness of 0.013 ± 0.031. SDLESLEKFAKTFKQRRIKLGFTQGDVGLAMGKLYGNDFSQTTISRFEALNLSFKNMCKLKPLLEKWLNDAESSP gave an abundance fitness of 0.031 ± 0.03. SDLEHLEKFAKTFKQRRIKLGFTQGDVGLAMGKLYGNDFSQTTISRFEALNLSFKNMCKLKPLLEKWLNDAESSP showed an abundance fitness of 0.029 ± 0.049. SDLEDLEKFAKTFKQRRIKLGFTQGDVGLAMGKLYGNDFSQTTISRFEALNLSFKNMCKLKPLLEKWLNDAESSP gave an abundance fitness of 0.036 ± 0.036. SDLEWLEKFAKTFKQRRIKLGFTQGDVGLAMGKLYGNDFSQTTISRFEALNLSFKNMCKLKPLLEKWLNDAESSP gave an abundance fitness of -0.137 ± 0.033. In the case of SDLEQLEKFAKTFKQRRIKLGFTQGDVGLAMGKLYGNDFSQTTISRFEALNLSFKNMCKLKPLLEKWLNDAESSP, the abundance fitness is reported as 0.003 ± 0.04. With SDLEFLEKFAKTFKQRRIKLGFTQGDVGLAMGKLYGNDFSQTTISRFEALNLSFKNMCKLKPLLEKWLNDAESSP the abundance fitness was -0.102 ± 0.044. SDLECLEKFAKTFKQRRIKLGFTQGDVGLAMGKLYGNDFSQTTISRFEALNLSFKNMCKLKPLLEKWLNDAESSP showed an abundance fitness of -0.005 ± 0.036. SDLEYLEKFAKTFKQRRIKLGFTQGDVGLAMGKLYGNDFSQTTISRFEALNLSFKNMCKLKPLLEKWLNDAESSP showed an abundance fitness of -0.269 ± 0.051. For SGLEELEKFAKTFKQRRIKLGFTQGDVGLAMGKLYGNDFSQTTISRFEALNLSFKNMCKLKPLLEKWLNDAESSP, the abundance fitness was -0.01 ± 0.41. Variant SNLEELEKFAKTFKQRRIKLGFTQGDVGLAMGKLYGNDFSQTTISRFEALNLSFKNMCKLKPLLEKWLNDAESSP has an abundance fitness of -0.107 ± 0.21. For SELEELEKFAKTFKQRRIKLGFTQGDVGLAMGKLYGNDFSQTTISRFEALNLSFKNMCKLKPLLEKWLNDAESSP, the abundance fitness was 0.015 ± 0.1. Variant SDLEELEKFAKTFKQRRIKKGFTQGDVGLAMGKLYGNDFSQTTISRFEALNLSFKNMCKLKPLLEKWLNDAESSP has an abundance fitness of -0.591 ± 0.48. With SDLEELEKSAKTFKQRRIKLGFTQGDVGLAMGKLYGNDFSQTTISRFEALNLSFKNMCKLKPLLEKWLNDAESSP the abundance fitness was -0.153 ± 0.29. For SDLEELEKVAKTFKQRRIKLGFTQGDVGLAMGKLYGNDFSQTTISRFEALNLSFKNMCKLKPLLEKWLNDAESSP, the abundance fitness was -0.441 ± 0.2. In the case of SDLEELEKGAKTFKQRRIKLGFTQGDVGLAMGKLYGNDFSQTTISRFEALNLSFKNMCKLKPLLEKWLNDAESSP, the abundance fitness is reported as -0.387 ± 0.28. Variant SDLEELEKLAKTFKQRRIKLGFTQGDVGLAMGKLYGNDFSQTTISRFEALNLSFKNMCKLKPLLEKWLNDAESSP has an abundance fitness of -0.514 ± 0.44. With SDLEELEGFAKTFKQRRIKLGFTQGDVGLAMGKLYGNDFSQTTISRFEALNLSFKNMCKLKPLLEKWLNDAESSP the abundance fitness was -0.115 ± 0.1. SDLEELEKFAKTFAQRRIKLGFTQGDVGLAMGKLYGNDFSQTTISRFEALNLSFKNMCKLKPLLEKWLNDAESSP showed an abundance fitness of -0.309 ± 0.32. For SDLEELEKFAKTFKQRRTKLGFTQGDVGLAMGKLYGNDFSQTTISRFEALNLSFKNMCKLKPLLEKWLNDAESSP, the abundance fitness was -0.041 ± 0.036. Work on SDLEELEKFAKTFKQRRCKLGFTQGDVGLAMGKLYGNDFSQTTISRFEALNLSFKNMCKLKPLLEKWLNDAESSP yielded an abundance fitness of -0.143 ± 0.046. SDLEELEKFAKTFKQRRLKLGFTQGDVGLAMGKLYGNDFSQTTISRFEALNLSFKNMCKLKPLLEKWLNDAESSP gave an abundance fitness of -0.025 ± 0.028. Work on SDLEELEKFAKTFKQRRWKLGFTQGDVGLAMGKLYGNDFSQTTISRFEALNLSFKNMCKLKPLLEKWLNDAESSP yielded an abundance fitness of -0.31 ± 0.038. Work on SDLEELEKFAKTFKQRRDKLGFTQGDVGLAMGKLYGNDFSQTTISRFEALNLSFKNMCKLKPLLEKWLNDAESSP yielded an abundance fitness of -0.063 ± 0.048. Work on SDLEELEKFAKTFKQRRAKLGFTQGDVGLAMGKLYGNDFSQTTISRFEALNLSFKNMCKLKPLLEKWLNDAESSP yielded an abundance fitness of -0.056 ± 0.031. Variant SDLEELEKFAKTFKQRRNKLGFTQGDVGLAMGKLYGNDFSQTTISRFEALNLSFKNMCKLKPLLEKWLNDAESSP has an abundance fitness of -0.146 ± 0.056. Variant SDLEELEKFAKTFKQRRFKLGFTQGDVGLAMGKLYGNDFSQTTISRFEALNLSFKNMCKLKPLLEKWLNDAESSP has an abundance fitness of -0.266 ± 0.076. With SDLEELEKFAKTFKQRRRKLGFTQGDVGLAMGKLYGNDFSQTTISRFEALNLSFKNMCKLKPLLEKWLNDAESSP the abundance fitness was -0.057 ± 0.025. With SDLEELEKFAKTFKQRRYKLGFTQGDVGLAMGKLYGNDFSQTTISRFEALNLSFKNMCKLKPLLEKWLNDAESSP the abundance fitness was -0.166 ± 0.054. SDLEELEKFAKTFKQRRHKLGFTQGDVGLAMGKLYGNDFSQTTISRFEALNLSFKNMCKLKPLLEKWLNDAESSP gave an abundance fitness of -0.133 ± 0.072. In the case of SDLEELEKFAKTFKQRRVKLGFTQGDVGLAMGKLYGNDFSQTTISRFEALNLSFKNMCKLKPLLEKWLNDAESSP, the abundance fitness is reported as -0.023 ± 0.027. SDLEELEKFAKTFKQRRKKLGFTQGDVGLAMGKLYGNDFSQTTISRFEALNLSFKNMCKLKPLLEKWLNDAESSP showed an abundance fitness of -0.028 ± 0.042. SDLEELEKFAKTFKQRRSKLGFTQGDVGLAMGKLYGNDFSQTTISRFEALNLSFKNMCKLKPLLEKWLNDAESSP showed an abundance fitness of -0.072 ± 0.029. With SDLEELEKFAKTFKQRRPKLGFTQGDVGLAMGKLYGNDFSQTTISRFEALNLSFKNMCKLKPLLEKWLNDAESSP the abundance fitness was -0.964 ± 0.1. For SDLEELEKFAKTFKQRRMKLGFTQGDVGLAMGKLYGNDFSQTTISRFEALNLSFKNMCKLKPLLEKWLNDAESSP, the abundance fitness was 0.004 ± 0.034. In the case of SDLEELEKFAKTFKQRREKLGFTQGDVGLAMGKLYGNDFSQTTISRFEALNLSFKNMCKLKPLLEKWLNDAESSP, the abundance fitness is reported as 0.064 ± 0.031. With SDLEELEKFAKTFKQRRQKLGFTQGDVGLAMGKLYGNDFSQTTISRFEALNLSFKNMCKLKPLLEKWLNDAESSP the abundance fitness was 0.086 ± 0.038. Variant SDLEESEKFAKTFKQRRIKLGFTQGDVGLAMGKLYGNDFSQTTISRFEALNLSFKNMCKLKPLLEKWLNDAESSP has an abundance fitness of -0.16 ± 0.39. For SDLEEFEKFAKTFKQRRIKLGFTQGDVGLAMGKLYGNDFSQTTISRFEALNLSFKNMCKLKPLLEKWLNDAESSP, the abundance fitness was -0.229 ± 0.32. Variant SDLEELEKFAKTFKQRRIALGFTQGDVGLAMGKLYGNDFSQTTISRFEALNLSFKNMCKLKPLLEKWLNDAESSP has an abundance fitness of -0.321 ± 0.47. Work on SDLEELEKFAKTFKQRRIDLGFTQGDVGLAMGKLYGNDFSQTTISRFEALNLSFKNMCKLKPLLEKWLNDAESSP yielded an abundance fitness of 0.131 ± 0.22. SDLEELEKFAKTFKQRRISLGFTQGDVGLAMGKLYGNDFSQTTISRFEALNLSFKNMCKLKPLLEKWLNDAESSP gave an abundance fitness of 0.11 ± 0.41. With SDLEELEKFAKTFKQRRILLGFTQGDVGLAMGKLYGNDFSQTTISRFEALNLSFKNMCKLKPLLEKWLNDAESSP the abundance fitness was 0.228 ± 0.41. With SDLEELEKFAKTFKARRIKLGFTQGDVGLAMGKLYGNDFSQTTISRFEALNLSFKNMCKLKPLLEKWLNDAESSP the abundance fitness was 0.474 ± 0.32. With SDLEELEKFAKTFKQGRIKLGFTQGDVGLAMGKLYGNDFSQTTISRFEALNLSFKNMCKLKPLLEKWLNDAESSP the abundance fitness was -0.147 ± 0.11.

Variants of: B2
Test: as above
Conditions: Homo sapiens
Work on Q78V yielded an abundance fitness of 0.039 ± 0.064. In the case of Q78L, the abundance fitness is reported as -0.01 ± 0.06. In the case of Q78H, the abundance fitness is reported as -0.025 ± 0.12. In the case of Q78E, the abundance fitness is reported as -0.004 ± 0.13. For Q78I, the abundance fitness was -0.023 ± 0.12. Q78P gave an abundance fitness of -0.256 ± 0.24. Work on Q78D yielded an abundance fitness of 0.084 ± 0.087.
